This note sets out measurements from the array DNA melting data of Ke et al..

This data set in a line: melting temperature; melt of duplexes. Conditions: sodium 0.0675 M; strand 1 µM.
By Tm is commonly meant the temperature at the midpoint of the melting transition. “CGACGTGCGGGATGTGCTG+CAGCACATCACGCACGTCG (((((((((.(((((((((+))))))))).)))))))))”: the Tm was determined as 63.8 °C.

Turning to “CGACGTGCTTGATGTGCTG+CAGCACATTTAGCACGTCG (((((((((..((((((((+))))))))..)))))))))”, the Tm stood at 52.5 °C.

As for “CGACGTGCGGAATGTGCTG+CAGCACATTATGCACGTCG ((((((((..(((((((((+)))))))))..))))))))”, the Tm worked out at 55.4 °C.

As to “CGACGTGCACTATGTGCTG+CAGCACATTGGGCACGTCG ((((((((.(.((((((((+)))))))).).))))))))”, the Tm stood at 53.3 °C.

For the substance “CGACGTGCCAAATGTGCTG+CAGCACATCGCGCACGTCG ((((((((...((((((((+))))))))...))))))))”, the Tm is 48.2 °C.

For “CGACGTGCAATATGTGCTG+CAGCACATCAAGCACGTCG ((((((((...((((((((+))))))))...))))))))”, the Tm came out at 48 °C.

“CGACGTGCCTGATGTGCTG+CAGCACATCGTGCACGTCG ((((((((..(((((((((+)))))))))..))))))))”: the Tm was 51.4 °C.

Regarding “CGACGTGCGTTATGTGCTG+CAGCACATAAGGCACGTCG ((((((((.((((((((((+)))))))))).))))))))”, the Tm was 56.5 °C.

With “CGACGTGCATTATGTGCTG+CAGCACATACTGCACGTCG (((((((((.(((((((((+))))))))).)))))))))”, the Tm is 53.8 °C.

In the case of “CGACGTGCTTTATGTGCTG+CAGCACATATTGCACGTCG ((((((((..(((((((((+)))))))))..))))))))”, the Tm turned out to be 51.2 °C.

Regarding “CGACGTGCGCGATGTGCTG+CAGCACATACTGCACGTCG ((((((((...((((((((+))))))))...))))))))”, the Tm came to 50.3 °C.

On to “CGACGTGCTTCATGTGCTG+CAGCACATCTCGCACGTCG ((((((((...((((((((+))))))))...))))))))”, for which the Tm is 47 °C.

Take “CGACGTGCCTTATGTGCTG+CAGCACATCTAGCACGTCG ((((((((...((((((((+))))))))...))))))))”: the Tm was 48.1 °C.

Turning to “CGACGTGCTGCATGTGCTG+CAGCACATTGTGCACGTCG ((((((((...((((((((+))))))))...))))))))”, the Tm was determined as 45.5 °C.

Turning to “CGACGTGCTACATGTGCTG+CAGCACATACCGCACGTCG ((((((((...((((((((+))))))))...))))))))”, the Tm amounted to 47.5 °C.

For the substance “CGACGTGCCCGATGTGCTG+CAGCACATAGGGCACGTCG ((((((((((.((((((((+)))))))).))))))))))”, the Tm amounted to 61.5 °C.

Regarding “CGACGTGCCCTATGTGCTG+CAGCACATAAAGCACGTCG ((((((((..(((((((((+)))))))))..))))))))”, the Tm is 50 °C.

Consider “CGACGTGCCCAATGTGCTG+CAGCACATCAAGCACGTCG ((((((((...((((((((+))))))))...))))))))”, for which the Tm turned out to be 48.9 °C.

Consider “CGACGTGCAAAATGTGCTG+CAGCACATTATGCACGTCG (((((((((.(((((((((+))))))))).)))))))))”, for which the Tm came to 55.1 °C.

Take “CGACGTGCACCATGTGCTG+CAGCACATCATGCACGTCG (((((((((..((((((((+))))))))..)))))))))”: the Tm was determined as 45.6 °C.

Turning to “CGACGTGCCATATGTGCTG+CAGCACATTCCGCACGTCG ((((((((...((((((((+))))))))...))))))))”, the Tm was determined as 48.1 °C.

In the case of “CGACGTGCGTCATGTGCTG+CAGCACATTTCGCACGTCG (((((((((..((((((((+))))))))..)))))))))”, the Tm is 53.1 °C.

On to “CGACGTGCCTCATGTGCTG+CAGCACATTCGGCACGTCG (((((((((..((((((((+))))))))..)))))))))”, for which the midpoint of thermal melting (Tm) amounted to 53 °C.

Consider “CGACGTGCTGGATGTGCTG+CAGCACATCAGGCACGTCG ((((((((..(((((((((+)))))))))..))))))))”, for which the Tm came out at 56.7 °C.

As to “CGACGTGCGAGATGTGCTG+CAGCACATAATGCACGTCG ((((((((...((((((((+))))))))...))))))))”, the Tm was determined as 52 °C.

“CGACGTGCCTTATGTGCTG+CAGCACATGGTGCACGTCG ((((((((...((((((((+))))))))...))))))))”: the Tm was 46 °C.

On to “CGACGTGCATAATGTGCTG+CAGCACATCGGGCACGTCG ((((((((...((((((((+))))))))...))))))))”, for which the Tm was 48.2 °C.

As for “CGACGTGCCAAATGTGCTG+CAGCACATAAAGCACGTCG ((((((((...((((((((+))))))))...))))))))”, the Tm turned out to be 49.9 °C.

Take “CGACGTGCAAAATGTGCTG+CAGCACATCGAGCACGTCG ((((((((...((((((((+))))))))...))))))))”: the Tm was 49.2 °C.

For “CGACGTGCCACATGTGCTG+CAGCACATTGGGCACGTCG (((((((((..((((((((+))))))))..)))))))))”, the Tm was 55 °C.

With “CGACGTGCGCCATGTGCTG+CAGCACATAGAGCACGTCG ((((((((.(.((((((((+)))))))).).))))))))”, the Tm is 54.4 °C.

As to “CGACGTGCACCATGTGCTG+CAGCACATGGCGCACGTCG ((((((((.((((((((((+)))))))))).))))))))”, the Tm was determined as 59.2 °C.

For “CGACGTGCATTATGTGCTG+CAGCACATGATGCACGTCG ((((((((((.((((((((+)))))))).))))))))))”, the Tm was determined as 58.1 °C.

Take “CGACGTGCTTTATGTGCTG+CAGCACATGTCGCACGTCG ((((((((...((((((((+))))))))...))))))))”: the Tm worked out at 47.8 °C.

With “CGACGTGCACGATGTGCTG+CAGCACATTCCGCACGTCG ((((((((...((((((((+))))))))...))))))))”, the Tm was determined as 44.5 °C.

Consider “CGACGTGCCGTATGTGCTG+CAGCACATCATGCACGTCG ((((((((...((((((((+))))))))...))))))))”, for which the Tm was determined as 48.9 °C.

As for “CGACGTGCATGATGTGCTG+CAGCACATTTCGCACGTCG ((((((((...((((((((+))))))))...))))))))”, the melting temperature (Tm) is 48.7 °C.

“CGACGTGCGCTATGTGCTG+CAGCACATGTTGCACGTCG ((((((((...((((((((+))))))))...))))))))”: the Tm amounted to 49.6 °C.

“CGACGTGCCGGATGTGCTG+CAGCACATAGAGCACGTCG ((((((((...((((((((+))))))))...))))))))”: the Tm was found to be 50.2 °C.

Take “CGACGTGCCCGATGTGCTG+CAGCACATGATGCACGTCG ((((((((...((((((((+))))))))...))))))))”: the Tm came out at 48.9 °C.

As to “CGACGTGCGACATGTGCTG+CAGCACATAAAGCACGTCG ((((((((...((((((((+))))))))...))))))))”, the Tm was 55.2 °C.

For “CGACGTGCAAGATGTGCTG+CAGCACATCTAGCACGTCG ((((((((.((((((((((+)))))))))).))))))))”, the Tm was found to be 57.9 °C.

In the case of “CGACGTGCGATATGTGCTG+CAGCACATCAGGCACGTCG ((((((((...((((((((+))))))))...))))))))”, the Tm amounted to 49.5 °C.

On to “CGACGTGCATCATGTGCTG+CAGCACATTTTGCACGTCG (((((((((..((((((((+))))))))..)))))))))”, for which the Tm is 50.7 °C.

Regarding “CGACGTGCTAAATGTGCTG+CAGCACATTAGGCACGTCG ((((((((..(((((((((+)))))))))..))))))))”, the Tm is 53.8 °C.

Consider “CGACGTGCTAAATGTGCTG+CAGCACATGCAGCACGTCG (((((((((..((((((((+))))))))..)))))))))”, for which the Tm is 55.2 °C.

Turning to “CGACGTGCGGCATGTGCTG+CAGCACATATCGCACGTCG (((((((((..((((((((+))))))))..)))))))))”, the Tm came out at 54.7 °C.

As to “CGACGTGCTATATGTGCTG+CAGCACATGAGGCACGTCG ((((((((...((((((((+))))))))...))))))))”, the Tm amounted to 52 °C.

As to “CGACGTGCGCCATGTGCTG+CAGCACATTACGCACGTCG (((((((((..((((((((+))))))))..)))))))))”, the Tm worked out at 52.3 °C.

With “CGACGTGCTTAATGTGCTG+CAGCACATGAAGCACGTCG ((((((((((.((((((((+)))))))).))))))))))”, the Tm was 57.4 °C.

Turning to “CGACGTGCGGTATGTGCTG+CAGCACATTGTGCACGTCG ((((((((...((((((((+))))))))...))))))))”, the Tm was 47.2 °C.

Turning to “CGACGTGCCCGATGTGCTG+CAGCACATAGTGCACGTCG ((((((((.(.((((((((+)))))))).).))))))))”, the Tm is 48 °C.

Regarding “CGACGTGCCGCATGTGCTG+CAGCACATCTGGCACGTCG (((((((((..((((((((+))))))))..)))))))))”, the Tm came out at 54.2 °C.

On to “CGACGTGCCGAATGTGCTG+CAGCACATGGGGCACGTCG (((((((((..((((((((+))))))))..)))))))))”, for which the Tm stood at 56.8 °C.

In the case of “CGACGTGCAGGATGTGCTG+CAGCACATCTGGCACGTCG ((((((((..(((((((((+)))))))))..))))))))”, the Tm was 57.1 °C.

“CGACGTGCATGATGTGCTG+CAGCACATATGGCACGTCG ((((((((...((((((((+))))))))...))))))))”: the Tm was 49.7 °C.

For “CGACGTGCGGTATGTGCTG+CAGCACATATTGCACGTCG ((((((((..(((((((((+)))))))))..))))))))”, the Tm is 55 °C.

With “CGACGTGCTCTATGTGCTG+CAGCACATCTGGCACGTCG ((((((((...((((((((+))))))))...))))))))”, the Tm is 49.5 °C.

With “CGACGTGCCACATGTGCTG+CAGCACATGGGGCACGTCG (((((((((.(((((((((+))))))))).)))))))))”, the Tm worked out at 63.6 °C.

Regarding “CGACGTGCATTATGTGCTG+CAGCACATGAGGCACGTCG ((((((((.(.((((((((+)))))))).).))))))))”, the Tm came to 54 °C.

On to “CGACGTGCGAGATGTGCTG+CAGCACATTTGGCACGTCG ((((((((.(.((((((((+)))))))).).))))))))”, for which the Tm amounted to 52.5 °C.

Take “CGACGTGCGAAATGTGCTG+CAGCACATTCGGCACGTCG ((((((((..(((((((((+)))))))))..))))))))”: the Tm turned out to be 53.7 °C.

As to “CGACGTGCATCATGTGCTG+CAGCACATGTGGCACGTCG ((((((((..(((((((((+)))))))))..))))))))”, the Tm is 55 °C.

Take “CGACGTGCCAAATGTGCTG+CAGCACATGGTGCACGTCG ((((((((...((((((((+))))))))...))))))))”: the Tm amounted to 48.9 °C.

Turning to “CGACGTGCAAGATGTGCTG+CAGCACATTGGGCACGTCG ((((((((...((((((((+))))))))...))))))))”, the melting temperature (Tm) is 51.5 °C.

Consider “CGACGTGCGACATGTGCTG+CAGCACATCTCGCACGTCG ((((((((((.((((((((+)))))))).))))))))))”, for which the Tm was 55.4 °C.
